Assay results published in patent US20220056101A1 (published 2022).
Numbering of substitutions follows the chain as printed.

T1: Epstein-Barr virus latent membrane protein 2 (LMP2) peptide on HLA-A11 (human)
T1 peptide: SSCSSCPLSK

T2: Epstein-Barr virus latent membrane protein 2 (LMP2) peptide on HLA-A24 (human)
T2 peptide: SSCSSCPLSK

B1: TCR-NPC-A11-003 (TCR, V domains shown)
Valpha: GIQVEQSPPDLILQEGANSTLRCNFSDSVNNLQWFHQNPWGQLINLFYIPSGTKQNGRLSATTVATERYSLLYISSSQTTDSGVYFCAVVNNNDMRFGAGTRLTVKP
Vbeta: DTEVTQTPKHLVMGMTNKKSLKCEQHMGHRAMYWYKQKAKKPPELMFVYSYEKLSINESVPSRFSPECPNSSLLNLHLHALQPEDSALYLCASSPGRWYEQFFGPGTRLTVL
B2: TCR-NPC-A11-125 (TCR, V domains shown)
Valpha: B1 Valpha with V90L
Vbeta: B1 Vbeta with P95Q, Q101A, P105Q, L112V

Key:
[1] = target: T1, Epstein-Barr virus latent membrane …; experiment: killing
[2] = target: T2, Epstein-Barr virus latent membrane …; experiment: killing

| Binder | binding result [1] | binding result [2] |
| --- | --- | --- |
| B1 | recognises | no recognition |
| B2 | recognises | no recognition |
